Measured values published in the supplement of paper PMC10567573.

B1: SPOPL (parent)
chain: AKREETKAMESQRAYRFVQGKDWG

Variants of: B1
Test: protein stability index of a GFP-peptide fusion (GPS, HEK-293T) (PSI 1-6); higher = more stable
Details: c terminus: a fixed tail appended
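Further: lentivirally expressed fusions sorted by FACS into six bins by GFP to DsRed ratio, PSI derived from sequencing read proportions per bin multiplied by bin number.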

Compared with AKREETKAMESQRDYRFVQGKDWG [A14D], AKREETKAMESQREYRFVQGKDWG [A14E] is higher in protein stability index: 3.1 for the first, 3.67 for the second.

Going from AKREETKAMESQRFYRFVQGKDWG [A14F] to AKREETKAMESQRGYRFVQGKDWG [A14G], the protein stability index falls from 3.49 to 1.9.

First: AKREETKAMESQRHYRFVQGKDWG [A14H]
Second: AKREETKAMESQRIYRFVQGKDWG [A14I]
The protein stability index of the first is lower: 3.38 for the first, 3.8 for the second.

First: AKREETKAMESQRKYRFVQGKDWG [A14K]
Second: AKREETKAMESQRLYRFVQGKDWG [A14L]
The protein stability index of the first is higher: 3.98 for the first, 3.3 for the second.

Compared with AKREETKAMESQRMYRFVQGKDWG [A14M], AKREETKAMESQRNYRFVQGKDWG [A14N] is lower in protein stability index: 3.49 for the first, 3.24 for the second.

Going from AKREETKAMESQRPYRFVQGKDWG [A14P] to AKREETKAMESQRQYRFVQGKDWG [A14Q], the protein stability index rises from 2.83 to 3.25.

Going from AKREETKAMESQRRYRFVQGKDWG [A14R] to AKREETKAMESQRSYRFVQGKDWG [A14S], the protein stability index rises from 3.18 to 3.3.

First: AKREETKAMESQRTYRFVQGKDWG [A14T]
Second: AKREETKAMESQRVYRFVQGKDWG [A14V]
The protein stability index of the first is higher: 3.63 for the first, 3.42 for the second.

First: AKREETKAMESQRWYRFVQGKDWG [A14W]
Second: AKREETKAMESQRYYRFVQGKDWG [A14Y]
The protein stability index of the first is lower: 2.81 for the first, 2.83 for the second.

Going from AKREETKAMESQRAARFVQGKDWG [Y15A] to AKREETKAMESQRACRFVQGKDWG [Y15C], the protein stability index falls from 4.14 to 2.9.

First: AKREETKAMESQRADRFVQGKDWG [Y15D]
Second: AKREETKAMESQRAERFVQGKDWG [Y15E]
The protein stability index of the first is higher: 5.19 for the first, 4.26 for the second.

Compared with AKREETKAMESQRAFRFVQGKDWG [Y15F], AKREETKAMESQRAGRFVQGKDWG [Y15G] is higher in protein stability index: 1.39 for the first, 4 for the second.

First: AKREETKAMESQRAHRFVQGKDWG [Y15H]
Second: AKREETKAMESQRAIRFVQGKDWG [Y15I]
The protein stability index of the first is lower: 3.98 for the first, 4.26 for the second.

Compared with AKREETKAMESQRAKRFVQGKDWG [Y15K], AKREETKAMESQRALRFVQGKDWG [Y15L] is lower in protein stability index: 4.61 for the first, 2.51 for the second.

First: AKREETKAMESQRAMRFVQGKDWG [Y15M]
Second: AKREETKAMESQRANRFVQGKDWG [Y15N]
The protein stability index of the first is lower: 3.02 for the first, 4.35 for the second.

Going from AKREETKAMESQRAPRFVQGKDWG [Y15P] to AKREETKAMESQRAQRFVQGKDWG [Y15Q], the protein stability index falls from 4.21 to 3.89.

First: AKREETKAMESQRARRFVQGKDWG [Y15R]
Second: AKREETKAMESQRASRFVQGKDWG [Y15S]
The protein stability index of the first is lower: 4.3 for the first, 4.68 for the second.

Compared with AKREETKAMESQRATRFVQGKDWG [Y15T], AKREETKAMESQRAVRFVQGKDWG [Y15V] is lower in protein stability index: 4.7 for the first, 3.92 for the second.

Compared with AKREETKAMESQRAWRFVQGKDWG [Y15W], AKREETKAMESQRAYAFVQGKDWG [R16A] is higher in protein stability index: 3.25 for the first, 3.69 for the second.

Compared with AKREETKAMESQRAYCFVQGKDWG [R16C], AKREETKAMESQRAYDFVQGKDWG [R16D] is higher in protein stability index: 3.77 for the first, 4.07 for the second.

Compared with AKREETKAMESQRAYEFVQGKDWG [R16E], AKREETKAMESQRAYFFVQGKDWG [R16F] is lower in protein stability index: 4.2 for the first, 2.63 for the second.

First: AKREETKAMESQRAYGFVQGKDWG [R16G]
Second: AKREETKAMESQRAYHFVQGKDWG [R16H]
The protein stability index of the first is lower: 3.63 for the first, 4.49 for the second.

Going from AKREETKAMESQRAYIFVQGKDWG [R16I] to AKREETKAMESQRAYKFVQGKDWG [R16K], the protein stability index rises from 3.42 to 3.99.

Going from AKREETKAMESQRAYLFVQGKDWG [R16L] to AKREETKAMESQRAYMFVQGKDWG [R16M], the protein stability index rises from 3.6 to 3.65.

Compared with AKREETKAMESQRAYNFVQGKDWG [R16N], AKREETKAMESQRAYPFVQGKDWG [R16P] is lower in protein stability index: 4.2 for the first, 3.68 for the second.

First: AKREETKAMESQRAYQFVQGKDWG [R16Q]
Second: AKREETKAMESQRAYSFVQGKDWG [R16S]
The protein stability index of the first is higher: 4.17 for the first, 4.04 for the second.

Compared with AKREETKAMESQRAYTFVQGKDWG [R16T], AKREETKAMESQRAYVFVQGKDWG [R16V] is lower in protein stability index: 4.04 for the first, 3.51 for the second.

Going from AKREETKAMESQRAYWFVQGKDWG [R16W] to AKREETKAMESQRAYYFVQGKDWG [R16Y], the protein stability index rises from 2.94 to 3.24.

Compared with AKREETKAMESQRAYRAVQGKDWG [F17A], AKREETKAMESQRAYRCVQGKDWG [F17C] is lower in protein stability index: 4.73 for the first, 4.24 for the second.

Compared with AKREETKAMESQRAYRDVQGKDWG [F17D], AKREETKAMESQRAYREVQGKDWG [F17E] is lower in protein stability index: 4.72 for the first, 4.61 for the second.

Going from AKREETKAMESQRAYRGVQGKDWG [F17G] to AKREETKAMESQRAYRHVQGKDWG [F17H], the protein stability index falls from 4.68 to 3.72.

First: AKREETKAMESQRAYRIVQGKDWG [F17I]
Second: AKREETKAMESQRAYRKVQGKDWG [F17K]
The protein stability index of the first is lower: 4.02 for the first, 4.45 for the second.

Compared with AKREETKAMESQRAYRLVQGKDWG [F17L], AKREETKAMESQRAYRMVQGKDWG [F17M] is higher in protein stability index: 3.67 for the first, 3.96 for the second.

First: AKREETKAMESQRAYRNVQGKDWG [F17N]
Second: AKREETKAMESQRAYRPVQGKDWG [F17P]
The protein stability index of the first is higher: 4.59 for the first, 4.03 for the second.

First: AKREETKAMESQRAYRQVQGKDWG [F17Q]
Second: AKREETKAMESQRAYRRVQGKDWG [F17R]
The protein stability index of the first is lower: 4.37 for the first, 4.59 for the second.

Compared with AKREETKAMESQRAYRSVQGKDWG [F17S], AKREETKAMESQRAYRTVQGKDWG [F17T] is lower in protein stability index: 4.19 for the first, 4.04 for the second.

Going from AKREETKAMESQRAYRVVQGKDWG [F17V] to AKREETKAMESQRAYRWVQGKDWG [F17W], the protein stability index rises from 3.94 to 4.36.

Compared with AKREETKAMESQRAYRYVQGKDWG [F17Y], AKREETKAMESQRAYRFAQGKDWG [V18A] is higher in protein stability index: 4.18 for the first, 4.22 for the second.

First: AKREETKAMESQRAYRFCQGKDWG [V18C]
Second: AKREETKAMESQRAYRFDQGKDWG [V18D]
The protein stability index of the first is lower: 3.51 for the first, 4.05 for the second.

Going from AKREETKAMESQRAYRFEQGKDWG [V18E] to AKREETKAMESQRAYRFFQGKDWG [V18F], the protein stability index falls from 4.15 to 3.32.

Compared with AKREETKAMESQRAYRFGQGKDWG [V18G], AKREETKAMESQRAYRFHQGKDWG [V18H] is lower in protein stability index: 3.67 for the first, 2.84 for the second.

Compared with AKREETKAMESQRAYRFIQGKDWG [V18I], AKREETKAMESQRAYRFKQGKDWG [V18K] is higher in protein stability index: 2.66 for the first, 4.13 for the second.

First: AKREETKAMESQRAYRFLQGKDWG [V18L]
Second: AKREETKAMESQRAYRFMQGKDWG [V18M]
The protein stability index of the first is higher: 3.51 for the first, 3.42 for the second.

First: AKREETKAMESQRAYRFNQGKDWG [V18N]
Second: AKREETKAMESQRAYRFPQGKDWG [V18P]
The protein stability index of the first is higher: 4.14 for the first, 4.07 for the second.

First: AKREETKAMESQRAYRFQQGKDWG [V18Q]
Second: AKREETKAMESQRAYRFRQGKDWG [V18R]
The protein stability index of the first is lower: 3.16 for the first, 3.99 for the second.

Compared with AKREETKAMESQRAYRFSQGKDWG [V18S], AKREETKAMESQRAYRFTQGKDWG [V18T] is lower in protein stability index: 4.19 for the first, 3.96 for the second.

Compared with AKREETKAMESQRAYRFWQGKDWG [V18W], AKREETKAMESQRAYRFYQGKDWG [V18Y] is higher in protein stability index: 2.43 for the first, 3.78 for the second.
